From paper PMC6547419

Tests used:
rVEGF164 [1] = molecular target: T1, rVEGF164 (rat, UniProt P16612-2 27-190); assay: ELONA2
T1 sequence: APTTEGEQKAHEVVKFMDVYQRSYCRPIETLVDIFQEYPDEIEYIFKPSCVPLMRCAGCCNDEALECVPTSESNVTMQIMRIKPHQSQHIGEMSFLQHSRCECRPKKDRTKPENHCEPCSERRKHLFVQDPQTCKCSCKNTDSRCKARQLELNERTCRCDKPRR

rVEGF164 [2] = molecular target: T1, rVEGF164; assay: ELONA1
hVEGF165 = hVEGF165 (human, UniProt P15692-4 27-191); assay: ELONA1

Q: For TGTGGGGGTGGACGGGCCGGGTAGA (ssDNA) [V7t1], which Kd (rVEGF164 [1]) is on record?
A: The Kd was 4.3 ± 0.5 nM.

Q: And the Kd (rVEGF164 [2])?
A: Its Kd is 0.62 ± 0.14 nM.

Q: And the Kd (hVEGF165)?
A: Its Kd is 0.77 ± 0.17 nM.
